Reference: article PMC11006747, “The E3 ubiquitin ligase ITCH negatively regulates intercellular communication via gap junctions by targeting connexin43 for lysosomal degradation” (Cellular and Molecular Life Sciences: CMLS, 2024)

Target: T1, Cx43-WT (human connexin43, transiently expressed) (human, UniProt P17302 1-382)
T1 construct: human connexin43 (Cx43; gene GJA1) from the expression plasmid pcDNA I/Neo; source: HeLa cells negative for Cx43, transfected (pcDNA I/Neo), in lysate
Experiment: co-IP; lysates of HeLa cells negative for Cx43, co-transfected 48 h with Cx43-WT or Cx43-P283A and HA-ITCH-WT, immunoprecipitated with anti-Cx43 antibodies cross-linked to protein A-Sepharose, 2 h at 4 °C; HA-ITCH detected by western blot with anti-HA and normalised to Cx43 in the immunoprecipitate; in one experiment cells treated with DMSO or bafilomycin A1 (200 nM) for the last 18 h; rabbit IgG as control
Conditions: partners not purified

T1 sequence (P17302 whole entry): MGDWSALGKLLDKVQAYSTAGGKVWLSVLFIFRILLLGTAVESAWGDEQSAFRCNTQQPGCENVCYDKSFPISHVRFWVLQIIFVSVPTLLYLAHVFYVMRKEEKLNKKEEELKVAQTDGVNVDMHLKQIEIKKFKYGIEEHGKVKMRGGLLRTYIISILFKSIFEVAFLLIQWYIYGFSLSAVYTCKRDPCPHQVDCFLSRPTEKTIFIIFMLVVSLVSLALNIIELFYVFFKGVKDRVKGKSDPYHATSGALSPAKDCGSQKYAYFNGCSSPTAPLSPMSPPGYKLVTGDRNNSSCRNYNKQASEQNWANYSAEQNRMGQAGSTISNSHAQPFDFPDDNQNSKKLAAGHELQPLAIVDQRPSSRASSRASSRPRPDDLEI

fold increase of co-immunoprecipitated HA-ITCH with bafilomycin A1 against DMSO: ~4 fold
B1: HA-ITCH-wild type (enzyme)
chain: not shown
notes: E3 ubiquitin ligase ITCH, wild type, gene synthesised (GeneArt, Thermo Fisher); Isoform inferred only from the printed number of the catalytic cysteine (C830A mutant of the same cDNA); also called HA-ITCH-WT; source: HeLa cells negative for Cx43, transfected (pcDNA3.4-TOPO), in lysate
